According to patent EP1562972B1:

Tests used:
[1] = target: human neonatal Fc receptor (FcRn), recombinant GPI-linked, on NS0 cells (human) (UniProt P55899); assay: competition flow cytometry, NS0 cells with human FcRn, vs biotinylated OST577-IgG1, FBB pH 6.0
[2] = target: rhesus neonatal Fc receptor (FcRn), recombinant GPI-linked, on NS0 cells (rhesus) (UniProt H9Z6D2); assay: competition flow cytometry, NS0 cells with rhesus FcRn, vs biotinylated OST577-IgG1, FBB pH 6.0
[3] = target: human neonatal Fc receptor (FcRn), recombinant GPI-linked, on NS0 cells (human) (UniProt P55899); assay: competition flow cytometry, NS0 cells with human FcRn, vs biotinylated HuEP5C7-IgG2M3, FSB pH 6.0
[4] = target: human neonatal Fc receptor (FcRn), recombinant GPI-linked, on NS0 cells (human) (UniProt P55899); assay: competition flow cytometry, NS0 cells with human FcRn, vs biotinylated HuEP5C7-IgG2M3, FBB pH 6.0
[5] = target: human neonatal Fc receptor (FcRn), recombinant GPI-linked, on NS0 cells (human) (UniProt P55899); assay: competition flow cytometry, NS0 cells with human FcRn, vs biotinylated OST577-IgG2M3, FBB pH 6.0
[6] = target: rhesus neonatal Fc receptor (FcRn), recombinant GPI-linked, on NS0 cells (rhesus) (UniProt H9Z6D2); assay: competition flow cytometry, NS0 cells with rhesus FcRn, vs biotinylated OST577-IgG2M3, FBB pH 6.0

Sequence of human neonatal Fc receptor (FcRn), recombinant GPI-linked, on NS0 cells (human) (P55899 24-297, chain 1 of 2): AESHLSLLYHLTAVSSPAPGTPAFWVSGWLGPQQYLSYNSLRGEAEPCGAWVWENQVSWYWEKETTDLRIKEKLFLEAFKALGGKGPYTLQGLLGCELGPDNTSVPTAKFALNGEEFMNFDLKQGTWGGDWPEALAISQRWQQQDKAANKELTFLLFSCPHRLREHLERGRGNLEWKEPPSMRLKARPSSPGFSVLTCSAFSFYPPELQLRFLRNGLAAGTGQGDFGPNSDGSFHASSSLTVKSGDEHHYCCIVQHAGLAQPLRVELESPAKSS
Sequence of human neonatal Fc receptor (FcRn), recombinant GPI-linked, on NS0 cells (human) (P61769 21-119, chain 2 of 2, further chain): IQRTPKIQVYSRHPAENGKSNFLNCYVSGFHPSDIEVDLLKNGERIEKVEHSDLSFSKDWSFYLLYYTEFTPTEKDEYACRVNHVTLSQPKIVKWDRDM

OST577-IgG1 M428F mutant (antibody)
IC50 [1]: 3.44 µg/mL | Relative Binding (ratio (IC50 wild-type / IC50 mutant)) [1]: 4

OST577-IgG1 M428L mutant (antibody)
IC50 [1]: 0.896 µg/mL | IC50 [2]: 0.629 µg/mL | Relative Binding (ratio (IC50 wild-type / IC50 mutant)) [2]: 14

OST577-IgG1 T250Q/M428L double mutant (antibody)
IC50 [1]: 0.351 µg/mL | Relative Binding (ratio (IC50 wild-type / IC50 mutant)) [1]: 29 | IC50 [2]: 0.236 µg/mL | Relative Binding (ratio (IC50 wild-type / IC50 mutant)) [2]: 37

OST577-IgG2M3 L314A mutant (antibody)
IC50 [3]: 68.7 µg/mL | Relative Binding (ratio (IC50 wild-type / IC50 mutant)) [3]: 0.16

OST577-IgG2M3 L314Q mutant (antibody)
IC50 [3]: 32 µg/mL | Relative Binding (ratio (IC50 wild-type / IC50 mutant)) [3]: 0.33

OST577-IgG2M3 L314R mutant (antibody)
IC50 [3]: 102 µg/mL

OST577-IgG2M3 L314W mutant (antibody)
IC50 [3]: 20.2 µg/mL | Relative Binding (ratio (IC50 wild-type / IC50 mutant)) [3]: 0.53

OST577-IgG2M3 M428F mutant (antibody)
IC50 [3]: 3.4 µg/mL | IC50 [4]: 2.97 µg/mL

OST577-IgG2M3 M428L mutant (antibody)
IC50 [5]: 1.79 µg/mL | Relative Binding (ratio (IC50 wild-type / IC50 mutant)) [5]: 6.7 | IC50 [6]: 1.92 µg/mL | Relative Binding (ratio (IC50 wild-type / IC50 mutant)) [6]: 7.7

OST577-IgG2M3 T250Q/M428L double mutant (antibody)
IC50 [5]: 0.43 µg/mL | IC50 [6]: 0.554 µg/mL | Relative Binding (ratio (IC50 wild-type / IC50 mutant)) [6]: 27
